Biological target: CD4 (recombinant CD4 antigen) (UniProt P01730 26-396)
Test: ellipsometry

Binder: GGGGTTGGTTGTGTTGGGTGTTGTGTCCAACCCCC (ssDNA, 5' thiol-C6) [IFN-gamma aptamer (nonsense control)]
- binding result: no binding

Reference: paper PMC3538135
